Measured values from US20250325718A1, “IMMUNOCONJUGATES COMPRISING KALLIKREIN RELATED PEPTIDASE 2 ANTIGEN BINDING DOMAINS AND THEIR USES” (Janssen Biotech, Inc., priority 2021, published 2025).
Substitutions are numbered along the chain they refer to.

B1: KL2B242 (Fab): anti-hK2 antibody; VH SEQ ID NO: 166, VL SEQ ID NO: 167 (antibody, V domains shown)
VH: QVQLQESGPGLVKPSETLSLTCTVSGGSISSYYWSWLRQPAGSGLEWIGRLYVSGFTNYNPSLKSRVTLSLDPSRNQLSLKLSSVTAADTAVYYCAGDSGNYWGWFDPWGQGTLVTVSS
VL: SYELTQPPSVSVSPGETASITCSGDQLGENYACWYQQKPGQSPVLVIYQDSKRPSGIPERFSGSNSGNTATLTISGTQALDEADYYCQAWDNSIVVFGGGTKLTVL
B2: KL2B413 (scFv-LH-Fc): anti-hK2 antibody from Ablexis mice immunization; VH SEQ ID NO: 137, VL SEQ ID NO: 138 (protein)
chain 1: EVQLVESGGGLVQPGGSLRLSCAASGFTFSSYWMTWVRQAPGKGLEWVANIKQDGSERYYVDSVKGRFTISRDNAKNSLYLQMNSLRAEDTAVYYCARDQNYDILTGHYGMDVWGQGTTVTVSS
chain 2: EIVLTQSPSFLSASVGDRVTITCRASQGISSYLSWYQQKPGKAPKLLIYATSTLQSGVPSRFSGSGSGTEFTLTISSLQPEDFATYYCQQLNSYPRTFGQGTKVEIK
B3: KL2B997 SORT: KL2B997 site-specific ADC prepared via the sortase tag with Gly3-vcMMAF (conjugate)
heavy: QVQLQESGPGLVKPSETLSLTCTVSGGSISSYYWSWIRQPPGKGLEWIGYIYYSGSTNYNPSLKSRVTISVDTSKNQFSLKLSSVTAADTAVYYCAGTTIFGVVTPNFYYGMDVWGQGTTVTVSS
light: B2 chain 2 with E1D, V3Q, L4M, S34A, L46F, T51A, R96L, Q100G
modifications: left off: a dimerising Fc or GST; large carriers
notes: KL2B997 site-specific ADC prepared via the sortase tag with Gly3-vcMMAF
B4: KL2B359 (scFv-LH-Fc): anti-hK2 clone from the re-humanization campaign of 11B6; VH SEQ ID NO: 139, VL SEQ ID NO: 140 (protein)
scFv: EIVLTQSPATLSLSPGERATLSCRASESVEYFGTSLMHWYQQKPGQPPRLLIYAASNVESGIPARFSGSGSGTDFTLTISSVEPEDFAVYFCQQTRKVPYTFGGGTKVEIKGGSEGKSSGSGSESKSTGGSQVQLQESGPGLVKPSQTLSLTCTVSGNSITSDYAWNWIRQFPGKRLEWIGYISYSGSTTYNPSLKSRVTISRDTSKNQFSLKLSSVTAADTAVYYCATGYYYGSGFWGQGTLVTVSS
modifications: left off: a dimerising Fc or GST; small tags and cut ends
B5: KL2B467 (Fab): anti-hK2 antibody from OmniRat immunization; VH SEQ ID NO: 168, VL SEQ ID NO: 169 (antibody, V domains shown)
VH: QVQLVESGGGVVQPGRSLRLSCAASGFTFSYYGMHWVRQAPGKGLEWVAFISYDGSNKYYADSVKGRFTISRDNSKNTLYLQMNSLRAEDTAVYYCAHLPYSGSYWAFDYWGQGTQVTVSS
VL: QSVLTQPPSVSVAPGQTASITCGGDNIGSKSVHWYQQKPGQAPVLVVYDNSDRPSGIPERFSGSNSGTTATLTISRVEAGDEADYYCQVWDSSSDHPVVFGGGTKVTV
B6: KL2B53 (Fab): anti-hK2 antibody; VH SEQ ID NO: 164, VL SEQ ID NO: 165 (antibody, V domains shown)
VH: EVQLVESGGGVVQPGRSLRLSCVASGFTFSSYDIHWVRQAPGKGLEWVAIISYDGSKKDYTDSVKGRFTISRDNSKNTLYLQMDSLRVEDSAVYSCARESGWSHYYYYGMDVWGQGTMVTVSS
VL: DIVMTQSPSSLSASVGDRVTITCRASQDISNYLAWYQQKPGKVPKFLIYAASTLHSGVPSRFSGSGSGTDFTLTISSLQPEDVATYYCQKYNSAPYTFGQGTRLEIK

Key:
[1] = Thermal stability by Differential Scanning Fluorimetry (NanoDSF); type: physicochemical; conditions: 0.5 mg/mL in Phosphate Buffered Saline pH 7.4, 20-95 ° C. at 1.0 ° C./minute
Description: Thermal stability was determined by Differential Scanning Fluorimetry (NanoDSF) using an automated Prometheus instrument. NanoDSF was used to measure Tm of molecules at a concentration of 0.5 mg/mL in Phosphate Buffered Saline, pH 7.4. Measurements were made by loading samples into 24 well capillary from a 384 well sample plate. Duplicate runs were performed for each sample. The thermal scans span from 20° C., to 95° C. at a rate of 1.0° C./minute. Intrinsic tryptophan and tyrosine fluorescence were monitored at the emission wavelengths of 330 nm and 350 nm, and the F350/F330 nm ratio were plotted against temperature to generate unfolding curves.

soluble hK2 = soluble hK2 (Homo sapiens, UniProt P20151); experiment: Affinity of hK2 antibodies for soluble hK2 by surface plasmon resonance (SPR); type: binding; conditions: antibody captured on anti-Fc chip, soluble hK2 injected, 1:1 Langmuir fit, KD = koff/kon
Description: Affinity of selected hK2 antibodies for soluble hK2 was measured by surface plasmon resonance (SPR). SPR is a label-free technique to study the strength of an interaction between two binding partners by measuring the change in mass upon complex formation and dissociation. Antibodies were captured on a sensor chip coated with an anti-Fc antibody followed by injection of soluble hK2 at various concentrations and specified association and dissociation times. Post dissociation, the surface was regenerated with an appropriate solution to prepare for the next interaction. Kinetic information (on-rate and off-rate constants) were extracted by fitting sensorgrams to the 1:1 Langmuir model. Binding affinity (KD) are reported as the ratio of rate constants (koff/kon).

hK2-positive VCaP cells = experiment: Target cell binding by flow cytometry, hK2-positive cells; type: cell-based; conditions: 4° C. 60 minutes, anti-Human F(ab′)2 secondary detection, live cells
Source text: To evaluate target cell binding of the KL2B30 Fab with different conjugation variants, VCaP cells were used as hK2-positive target cells and DU145 cells were used as hK2-negative cells. KL2B30 parental antibody (comprising a heavy chain and light chain of SEQ ID NO: 210 and SEQ ID NO: 221, respectively) and hul1B6 (an anti-hK2 antibody, also referred to herein as h11B6, comprising a heavy chain and light chain of SEQ ID NO: 203 and SEQ ID NO: 215, respectively) were included as positive controls. The h11B6 antibody is described in U.S. Pat. No. 10,100,125, which is incorporated by reference herein. An anti-Human F(ab′)2 fragment specific secondary detection antibody was used for detecting Fab-based binding. Test antibodies were incubated with target cells at 4° C. for 60 minutes and detected by secondary staining. Cell binding was quantified by flow cytometry based on secondary antibody binding signal and gated from on live cells.

soluble hK2, sequence (P20151 25-261): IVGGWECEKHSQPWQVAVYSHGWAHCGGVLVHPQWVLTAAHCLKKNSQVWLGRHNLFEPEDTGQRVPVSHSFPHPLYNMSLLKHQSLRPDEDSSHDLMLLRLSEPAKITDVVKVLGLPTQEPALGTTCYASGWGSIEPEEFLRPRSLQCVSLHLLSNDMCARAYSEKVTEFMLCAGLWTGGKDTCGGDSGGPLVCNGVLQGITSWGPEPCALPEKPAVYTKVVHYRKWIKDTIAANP

Row | Molecule | Tm (° C.) [1] [°C] | other results
1 | B1 | >70 | 
2 | B2 |  | Kd (soluble hK2): 34.3 nM; Kd (soluble hK2; listed as KL2B413 scFv): ~34 nM
3 | B3 |  | cell binding to hK2-positive VCaP cells (hK2-positive VCaP cells): positive and dose-dependent cell binding
4 | B4 | 67 | 
5 | B5 | >70 | 
6 | B6 | >70 | 
